In a protein production outcome set (Wang et al. 2014):

Assay: label from the status in PepcDB records
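Note: failed if final PepcDB status was selected cloned or expressed and not failed if soluble or beyond.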

Sequence | protein production
MSRTEGSHEAEQDLTMIVGTYTSGDSKGLYSFRFNEENGTATALSEAEVENPSYLVPSADGKFIYAVSEFSNEQAAANAFAFNKEEGTFRLLNTQKTGGEDPCYIITNGSNVVTANYSGGSISVFPIDKDGSLLPASEVVKFKGSGADKERQEKPHLHCVRITPDGKYLFADDLGTDQIHKFIVNPNAKADNEDVFLKEGSPASYKVEAGSGPRHLTFAPNGSYAYLINELSGTVIAFEYNDGELKEIQTIAADTVGAKGSGDIHISPDGKFLYASNRLKADGLAIFSIHPENGMLTKVGYQLTGIHPRNFIITPNGKYLLVACRDSNVIQVYERDTDTGLLTDIRKDIKVDKPVCIKFVPLEHHHHHH | not failed
MSRTMAEVNRLLKKTAGLINKDTESPFQGEFRVGVDLGTADIQTIVLDADGNPLAGFMDWANVVRDGVVVDFFGASQIVREQVRRASAKLGIQIEQVTTSFPPGTDSRISTNVIEAAGLEVAGVIDEPSSVAQLLQLDHAAVVDIGGGTTGTAIIEEGRVVRSMDDATGGRHITLTLAGHFGLPYEEAEEMKRTSKDLALCRLAAPVIAKMADIVHGHIAGHKVPAIYLTGGSCALPGFLEVFAAEFPGIEIVMPSHPLYLTPLAIATYSDVLQTREQRVGLEHHHHHH | failed
MSRVAGLSSKKSRWLLQSLLDQQRHSLGTGFESANILLSPKYHLKDKDLRKIHKAARDGDAARVQQLLLGKHCVNDKDKKKRTALHIACAYGHPKVVMALVEGKCEVNATDSEECTSLVKAVQCQEEECATILLENNADPNIVDAQGNSALHYAVYYKNTSLAAKLLDHEVNIEATNKDGFTPFLLAVSENKLKIAKFLLMKNASIHAADNQKRTALMHAVSHDSTNLVRFVLEQGVDLFVKDAFGLTAIDYAADFKYNSKDQQSQELENMEKKYTAAQDSLEYTAAQDSLEHTAAQDSLEHTAAQDGLEYTAAQDSLEHTAAQDSLEHTAAQDSLEHTAAQDSLEYTAAQDSLEYTAAQDSLEYTAAQDSLEHTAAQDSLEYTAAQDSLEHTAAQDSLECTAASNSSRSHALITHVHLSAEPDGGVTSVEEPRRLDDRGDDQPQEAVTAPRTREKEQDMCTVVTGKEDEDESSWDSETNPPSPWGAPEALCAAALDHGDIGSPLTRENGHPRARQSPSVDSEEQDGGSGLNIKEEKTRDHEEWSGDFLMDRTSKESEPAAGDLLQVKDSWSLNDTDPNKGRSGGDPIEESRNATDLNHCKAVYIPPSESANSEIWKGMSSAKARLDNASKGPTVTRF | failed
MSRVPGWLGRLGAGLTRASERLEQRREEARRDDADDGPGPVSDHERRPLDDTAEDSAVEHLAAHRPVALAHRPDPAQAVPWGVRVAAEAGWRLLVLAGTVWVLMRVISAVQLVVLAFVAALLITALLQPAVAWLRRHGVPRGPATALTAILGFVVMGLIGWFVTWQVMENIDNLSDQVQDGIDELRNWLLNSPFHVTDKQINEIAKNLRDAVGANTDQITSAGLEGVTVVVEALTGILLAAFSTLFLLYDGKRIWQWSLKLVPAAARPGVAGAGPRAWRTLTAYVRGTVIVALIDAIFIGLGIYFLDVPMAVPLAVFIFLFAFIPLVGAVVSGALAVVVALVTQGVFAAVMTLVVVLAVQQIEGHILQPFILGRAVRVHPLAVVLSVAAGGMVAGIGGAVVAVPLVAVTNTVVGYLRAYSREAALRRTPRPHGATSTDAAPAVDRVPGPPKPPAPPADGPPSDAP | failed
MSRYDITGSEGEYEPGSDNKVLRNLPGITDPEEMNIVETDLLEDLYLQVFDNFPEELTFETLCQWHRAWLGNVYSWAGQSRTVDMSKPNIRFASPVQIPKLAEKFEARYLPRFAELPEMTDEELVAFLAEVHVEFILIHPFREGNGRISRLLLDVMAAKAGAEPLDYSLWDEHKDFYFKAIQAGRDGDYQHVERLIRDVLEAQQ | failed
MSSAIERKSLDPSEEPVDEVLQIPPSLLTCGGCQQNIGDRYFLKAIDQYWHEDCLSCDLCGCRLGEVGRRLYYKLGRKLCRRDYLRLFGQDGLCASCDKRIRAYEMTMRVKDKVYHLECFKCAACQKHFCVGDRYLLINSDIVCEQDIYEWTKINGMI | failed
MSSALLRVAYAYDRLRAHPPEVAGQIATAMASAVHPKGEEPVFLELGVGTGRIALPLIARGYRYIALDADAAMLEVFRQKIAGVDRKVQVVQADARAIPLPDESVHGVIVVHLWHLVPDWPKVLAEAIRVLKPGGALLEGWDQAEESPEWTLQERWRAFAAEEGFPVERGLHAKRLKEVEEALRCLGLKPRTREVARWREERTPREALEALSERLYSFTQGLPEPVHARVMERLWAWAEAELGDLDRPFPVEKRFLLRVSRLG | failed
MSSASSEAQRLARLALLQVVDTAAEPFFDALAAAAQAIAGTPIALVSLVDERRQWWKANIGLPGVSETPRELAFCTYTIQGDAVMEVRDAPADPRFHDNALVTDAPGIRYYAGAPIVLPDGLRMGTVCVIDQRPRALEPAQLQALQQLAKVAAEGLEQRRVMLEREAANAQLQQRLRESEAFLERTGRVAGVGGWEVDVASGTLIWSDQTCRLHDVPPGYRPSLTEAIGFYPLEARAVITEAVDACVRDGTSWDLELPLTSATGRRLWVHSTGSVEHVDGRKRLIGAVQDVTDRHRAVDALAASERKFRKMFQYSLGLICTHDMHGRLVSINPAAARSLGRSVEQMEGRSLVEFVRPERHAALRGYLSRMVLDGQDSGVIELVAGDGSLRHWQYHNVLDVESDATVVLAHAQDITNQYRQEKQLLEWSFTDPLTNCYNRRFLDELDKRDPAVRWGCIVVDLDKFKLVNDTHGHQRGDEVLVQMAWFLNQPLRTQDRLVRLGGDEFLVLLHQASQTQLDALKRDYMGASEDAPIRFTLGTALRQDGEALAAVVDRADHSLYSLRRARRGTGTSDQR | failed
MSSATGRWRESPPTAVKNEEDNGRCPRELRVQSEAVLAGRYRLEERLGRGGMGEVWRAFDPHLEREVAVKLILSGDNDGVLIRRFQREARISANIQHPNITAVHDFGHHEGQLFLVMELLRGRDLGAVLADHPQGMPLDLVVSVAVQAADALRAAHTHRVVHRDLKPGNLFLLDTGHVKVCDFGIAHIADATSQLTAVGTALGTPAFMPPEQWKGEEVDSRSDVYALGGVMHTMLTGRIPFTGPLPALLAQHLTQDPPPIREFRPDVPLELADLVARMMAKDPAARPDSHELGELIYRAAAPEASGSPAFFSPQIAPQALPTAPPTAAPVPPQPSHATGYAAPSQWMPAAPQPHPTAHPPAEGDPQTMFTLGLRHREQGDIAGAESWYRKAAEAGHLDSMFNLALLSRERGNLVEAESWYRRAAEVGDVDAMVNLGDLLKERGESAEAELWHRRAAEAGHIASMHTLGNLLYSKGDTAEAETWWRRAAEAGNIRAMGVLGNLLEQRGDTFGAEQWYRRAAEAGNLDAMVNLGVLLENRHDTFGAEQWYRRAADAGDIDAMVNLGNLLHGRGDMGSAQYWWQRAAQTGNTRALNHLNQMG | failed
MSSATGSKIVVTGATGNVGTSVVRLLSEDPEVGTVLGLARRIPDWSPAKTEWAAVDLASEQSDLTSHFADADAVVHLAWAFQPTHDPATTWRTNVLGSIRVFEAVAAAGVPALVHASSVGAYSPGPKNHAVDESWPTHGWPDAAYCREKAYLERALDTFERDHPGIRVVRMRPAFLFKRESASEQRRIFGGRFLPGPAARPELLPFLPDVPGLRVQALHTDDAARAYRLAVRSADARGAFNLAAEPPVDAELLGELLGVRPVRLPRAAARSAIAAAWGMRLLPASPHLFDAVLRLPVMDCTRARVELGWGATRTATEVLEEFLRGLRQGAGADTEPMRGRKVG | failed
MSSDAISLRAAGPGDLPGLLELYQVLNPSDPELTTQEAGAVFAAMLAQPGLTIFVATENGKPVATATLLIVPNLTRAARPYAFIENVVTLEARRGRGYGRTVVRHAIETAFGANCYKVMLLTGRHDPAVHAFYESCGFVQNKTGFQIRQD | not failed
MSSDCLNVSYPATGCQKLFEVVDEHKLRVFYEKRMGQVVEADILGDEWKGYQLRIAGGNDKQGFPMKQGVLTHGRVRLLLKKGHSCYRPRRTGERKRKSVRGCIVDANMSVLALVVLKKGEKDIPGLTDTTIPRRLGPKRASKIRKLYNLSKEDDVRRFVVRRPLPAKDNKKATSKAPKIQRLITPVVLQRKHRRIALKKKRQIASKEASADYAKLLVQRKKESKAKREEAKRRRSASIRESKSSVSSDKK | failed
MSSDKTLNVKATGIIALAVMCSRVLGLIREVLFNALFGSASMGIFLIAFRAPNLLRDLFAEGALSVSFITVFSKKIETEGEKSAWQLASKMLTLTSVFMSILCLFGIIFAKYLIFILAPGFSVKDAETTIFLTQLMFPFILLVSLAAIVMGMLNSKNVFGMPALASSFFNIGSILGGALCGWFIDPSFGERALIGLAIGTVIGGLLQLGVQFPSLRKVGFYFKPNFHWYDSGVRNTLILTIPAVIAASAVQINVLINSGFASYLGKEAVTWLNSAFRLMQFPLGVLGVAIATITLPVVSRLAATNNHSQFGSTLARAIRLAVFLTMPAAVGLWFFATPIISLIYEHGKFHASDSLQTAYALQFYALGLVAYSCIKVLSPAFYAIDKKWTPMIVSFATIILNIILNYFLIFKLSMGHRGLALSTTVSATVNFLVLYVLMTRLHNLQNRYLFNTILRCVLASAILGFMCQSIFAYGADFLYHPSFWIRAVSLAISISFAVLVYLSMCVILRVDEAKSIFMIIRHRLGFPIKFKSKQV | failed
MSSDVQKGDNLETPGARDLLLQTASNIMREGDVVDISLSELSLRSGLNSALVKYYFGNKAGLLKALLDRDMENIVKSVDALLAKDDMSPEAKLRRHISKCIDTYYDYPYLNRLLMRLVRDSDEAEAKRIADQYLLPLHRAYNRFIGEGVKAGVFRPINPQLFYFTVTGAADRFFSARLVLKHCFDQDTLTEQLRDSYREHTVDFIMAGILAH | not failed
MSSEKVMSESSNASTKEGQLPRSSGVSWSLIMGAAFLMATSAVGPGFLTQTTVFTQTLGASFAFVILVSIILDIGAQLNIWRVIVVSKKRAQDIANDLLPGLGYAIAGTVALGGLAFNIGNIGGAGMGMNVLFPSISPVAGASISAVIAVAIFMLKDAAKVMDRFTILMGAALIVMTLYVLFSTSPPIGEALYRSVWPEKLNVLAIITLVGGTVGGYITFAGAHRLIDAGVTGKEALPQVNRGSVSAISVASIVRVILFLAALGVISTGVTLDPSNPPASMFQHAAGNIGYKIFGLVLWAAAITSVIGAAYTSVSFLKTLHPMIDLHSRKFIIGFIVISTFIFCFIGKPVVLLIVAGALNGFILPVTLGIMLIAAKKAQIVGDYKHPVWMSVFGWLITAMMAAMSVYTLYMLLI | failed
MSSERIVELIKEIYLDFRKGNFKEALVKSEEAHSLDFDNIEILTALKSSVYWNGQVESLDRIGQDYEKAEFLIREWNNFAGRYLKKMGCNFLQGRNSIKYFVFQTCLYIYKNIYKMHPENLDLLIKIAKSYKGMGNYERAINVFLQILGDFKDNSDVVAELADSYALVDEIKEAKVLFREAFFINPQKIDIYSLESDMILRLIDLIKSDRNISDDLIKEWIPVYGSLNGVFNIKRELRPIELGQLKQSVYSLRNELKEKSYRSINESILLPRLINKYFWLIDHYVRIKEDRARIDEILLYIKEIDLGIYQQYVN | failed
MSSERQLAGRIVVPGEPLPEEVEASPPYVIDYKGVKRATVVGLLREKGDGGGRAFVKLKEIYVPQAGDVVIGLIQSVGIMNWFVDINSPYVAVLSVQDFLGRPFNPAVDDMQSLLKVGDYIKAKVVAFDKTRSPLLTVQGEGLGRIVRGKIVEISPAKVPRVIGRKMSMLKTLEEKTECKIFVARNGRIHLECPNEDLEAIAVMAIKIIDEEAYTSGLTKRIIKFIEEERRIREV | not failed
MSSFAELLQQGASQAWLYFPSAILLGALHGLEPGHSKTMMAAFIVAIRGTVKQAVLLGLASTLSHTAVVWLVAMAGMYLGQNLNAETTEPYFQLASAAIIITIALWMLWRTWRGEQMWRFEEGDDLQHDYHHHDEMQRIDTGHGRIELSIFEEGVPPRWRLNILTGHAWSAAEMSLLTTRPDGLAQQFRFVDRGDYLESVDEIPEPHEFTARLSLGHAGHSHDYDLEFHEHGHGHGHDHAELEGLELSLEGYQDAHERAHANDIRKRFSNRNVTTGQIILFGLTGGLIPCPAAITVLLLCLQVKEVALGAVLVLCFSIGLAITLVTVGAAAAIGARQASNRWPWLGAVARRAPYLSSLLIIGVGIYVGVHGWIGLNA | failed
